Results: publication PMC9334217

Tests used:
[1] = system: CCn1c(=NN=c2sc3cc(S(=O)(=O)O)ccc3n2CC)sc2cc(S(=O)(=O)O)ccc21; assay: purified protein; settings: 1.5 mM H2O2, 100 mM sodium acetate, pH 4.3, 25 °C, variant 29E4
[2] = target: PpDyP variant 6E10 (E188K/A142V/H125Y) (Pseudomonas putida MET94); assay: crystal structure

Row | Substance | Km [1] [µM] | stoichiometry N [2]
1 | PpDyP (Pseudomonas putida KT2440; E188K/H125Y) | 810 ± 190 | –
2 | PpDyP variant 6E10 (E188K/A142V/H125Y) (enzyme) | – | 4
